Test results as given in PMC9036094, “Antigen-derived peptides engage the ER stress sensor IRE1α to curb dendritic cell cross-presentation” (The Journal of Cell Biology, 2022).

Key:
Type in all cases: cell-based, mouse
[1] = test system: IRE1α in MyD88 KO Flt3L-derived BMDCs; test: IRE1α activation in MyD88 KO Flt3L-derived BMDCs (immunoblot); conditions: ovalbumin 500 μg/ml or LPS 10 μg/ml, 4 h
Method: (§1) Figure S1. Antigen pulsing of BMDCs activates IRE1α. (A) BMDCs were treated with MG132 (5 μM) or ovalbumin (500 μg/ml) for indicated time points and analyzed by IB. (B) BMDCs were pulsed with ovalbumin (500 μg/ml) and G9668 (3 μM) for indicated time periods and analyzed by IB. (C) Molecular structure, potency, and kinase selectivity of G9668. (D) Schematic representation of G9668 interaction with 220 kinases at 1 μM. Size and color of circles represent interaction strength. Analysis was conducted by KinomeScan. (E) BMDCs were pulsed for 4 h with APC-tagged ovalbumin or soluble CD4-Fc protein (500 μg/ml) with amiloride (10 μM); uptake of protein was assayed by flow cytometry (n = 3). (F) WT or MyD88 KO Flt3L-derived BMDCs were pulsed with ovalbumin (500 μg/ml) or soluble CD4-Fc protein (500 μg/ml), or treated with LPS (10 μg/ml) for 4 h and analyzed by IB. (G) MEFs and BMDCs were pulsed with ovalbumin or treated with Tg (100 nM) for 4 h and analyzed by IB. Images in A, B, F, and G represent at least two similar experiments, and molecular weights represent kD; E bar graphs represent mean ± SD from three independent biological repeats. Analysis for E was performed using unpaired, two-tailed t test; *, P ≤ 0.05; **, P ≤ 0.01. Source data are available for this figure: SourceData FS1. […]

[2] = test system: ATF6 in BMDCs; test: ATF6 activation in BMDCs (immunoblot, proteolytic processing); conditions: MG132 5 μM or ovalbumin 500 μg/ml, in words
Method: as §1

[3] = test system: PERK (ATF4, CHOP) in BMDCs; test: PERK activation in BMDCs (immunoblot of ATF4 and CHOP); conditions: MG132 5 μM or ovalbumin 500 μg/ml, in words
Method: as §1

B1: ovalbumin: classical protein antigen ovalbumin (Sigma-Aldrich) (protein)
chain: MGSIGAASMEFCFDVFKELKVHHANENIFYCPIAIMSALAMVYLGAKDSTRTQINKVVRFDKLPGFGDSIEAQCGTSVNVHSSLRDILNQITKPNDVYSFSLASRLYAEERYPILPEYLQCVKELYRGGLEPINFQTAADQARELINSWVESQTNGIIRNVLQPSSVDSQTAMVLVNAIVFKGLWEKAFKDEDTQAMPFRVTEQESKPVQMMYQIGLFRVASMASEKMKILELPFASGTMSMLVLLPDEVSGLEQLESIINFEKLTEWTSSNVMEERKIKVYLPRMKMEEKYNLTSVLMAMGITDVFSSSANLSGISSAESLKISQAVHAAHAEINEAGREVVGSAEAGVDAASVSEEFRADHPFLFCIKHIATNAVLFFGRCVSP
Which results are given for B1?
IRE1α activation, MyD88 KO BMDCs [1]: unimpeded IRE1α stimulation; ATF6 activation [2]: relatively minimal activation; PERK activation [3]: did not show a measurable response
